The data set concerns T1, AirR (Staphylococcus aureus NCTC8325), ORF:f68b8ed8.
T1 sequence: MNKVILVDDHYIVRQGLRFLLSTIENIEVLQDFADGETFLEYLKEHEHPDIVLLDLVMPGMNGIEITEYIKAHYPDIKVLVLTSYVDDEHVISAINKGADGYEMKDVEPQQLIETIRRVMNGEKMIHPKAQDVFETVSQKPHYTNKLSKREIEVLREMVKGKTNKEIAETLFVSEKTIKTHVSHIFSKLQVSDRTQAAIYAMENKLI
The data set can be described thus: EMSA. (In general: In EMSA bound probe runs differently from free probe, usually more slowly.)

As for “AGCTACACGTAATTTCGCGCTTCGTGCTCTGTTATTGTCATCTAAATCTTCTTCTGTAGCGGTAATCGGTTTACGATTAACACGCTTTAACTTAGGTGTATATGCTTCTGGTATAACTGGTAATCCTCTTGGTACCTCTGGACCTTTTTCATATTCTTGGAACACCTGTTTACATAAACGATCTTCTAAAGAATGGAAAGTGATTACCGAAATCCTGCCATCTACTTTCACTAATTCAATCGCTTGTTCTATTGAATC (double strand) [pbp1 promoter (p-pbp1)]”, the binding entry is “binds”.
As for “GAATCGCGAACATGGACGAACGATTAGTTGTTAATTTTGAAAATTTATAAAAGGTTAAACGAATGCAGTGAGAGATGTCATTTTAATATCAATGTATGGCTATTTTGTAATGACAATGTAATGAGTTTAGTAAAACATTTCGGGAATATTAAATAGTTGGAAAATGAGAATTAAATCCTTTACTCAGTTGTCTAATTCTTTTAGTATGTGCAGTACAGTTTAATTGAAAACTAACTTTAACTTTAATGGAGGATGTTTTATACATGAAAAAATTAACAGCAGCAGCGATTGC (double strand) [lytM promoter (p-lytM)]”, the binding result is given as “binds”.

The values are drawn from paper PMC4029521.
